Measured values: a protein production outcome set (Wang et al. 2014)

Assay: label from the status in PepcDB records

In the case of “MKRTLLAISIFAITCNASASSSPDAVSSMSDRYSTLANLEMNGGFPTETSQKILQNESYFQRASMLYQWALPIVNMKAMQEGHAELMNGTAYNKIAIYQDRLKPNSLITTPNSDVIYAMGWLDMKETGPLIIEHPAGLQSLMDDMYHHPLRGPLDKNQPGGQYLGDIGNAGPDKGKAAKFLILPPNKKREDYAQLADKYFIYESNTSEVFLFLRSFFKDMNNLEPAVNRVKEIKVYPLNGSAESMEFFNVSDVPSKSIWDNDYRFYETLNRAVQNMELATFDPYMNGVMAAIGISKGVEFTPTEKQKEMLTKAAQTGWKISKEIALNFDEKSSKTTGDTWFWKEAPSWVAHALTDKGNQYHALSDPYYHNIKTGYTNVDAITHMYTNHYSMSSGMINAKIGAGAKYAGAYKDKDLNPLIGSCNYSLHIPADVPASLFWSVTAYDAATAAGVNVENHQWPSLGDRDNPIKNSDDSVTLFFGPTAPENAQLAKNNWLQFDNDSWFSLIRFYGPQQSLFDGSWVPGEFEKINCVK”, the protein production is reported as “failed”.

With “MKRTVALAASLSLLWLLLSGYWHDPLLLGFGLLSVGAVVALSLRMGIVDAEGVPLRQIPGLITYLPWLAWQVVLSAITVARIVLSPKLSISPTLAAIPAAPKTAIGQVILANSITLTPGTLSLDLDDGAVLVHGLCAAGIDDLMTGEMGRRVAALDGRGAP” the protein production was “failed”.

For “MKRVAIFASGSGTNAEAIIQSQKAGQLPCEVALLITDKPGAKVVERVKVHEIPVCALDPKTYPSKEAYEIEVVQQLKEKQIDFVVLAGYMRLVGPTLLGAYEGRIVNIHPSLLPAFPGLHAIEQAIRANVKVTGVTIHYVDEGMDTGPIIAQEAVSIEEEDTLETLTTKIQAVEHRLYPATLHKLLSK”, the protein production was “not failed”.

With “MKRWGLIFPTLYFFFLFIMIFVFNFPREVTRQWMWIQVGGIVFMIALGLYFDGYASLKEVITIGAFTLLWLGLSFTVNIRKEYFTLLGLIIELVLDLALREGG” the protein production was “failed”.

For “MKSARPRLSDAHGRRNCARRGRRPGHQPFWRLAMNIVRYPQFSTHALQNEIKHVFDRFFEHNSDTDESAVVTAQWVPRVDIKEEPKHFVLYADLPGIDPSQIEVQMDKGILSIKGERKSESSTETERFSRIERRYGSFHRRFALPDSADADGITASGHNGVLEIRIPKRPAATPRRIHVGNGQDTSDSTVQ”, the protein production was “failed”.

In the case of “MKSAVEQLSTYKSVHLNPRNIQTHFIGIPLIIWSAFLLFATIRIPLGDADNVNLGMILAIGIMLYYLRLHAKLALGLALFLAPVIYTTELVAHSENAFGLAITVFIVGWIFQLIGHRYEKAKPAFVDDLNQLLIGPFFLMAEVYFMLGLEKQLNAEITPIAIEKRRALEAHLKTK”, the protein production is reported as “failed”.

In the case of “MKSAYIFFNPKSGKDEQALAKEVKSYLIEHDFQDDYVRIITPSSVEEAVALAKKASEDHIDLVIPLGGDGTINKICGGVYAGGAYPTIGLVPAGTVNNFSKALNIPQERNLALENLLNGHVKSVDICKVNDDY”, the protein production is reported as “failed”.

In the case of “MKSILDGLADTTFRTITTDLLYVGSNDIQYEDIKGDMASKLGYFPQKFPLTSFRGSPFQEKMTAGDNPQLVPADQVNITEFYNKSLSSFKENEENIQCGENFMDIECFMVLNPSQQLAIAVLSLTLGTFTVLENLLVLCVILHSRSLRCRPSYHFIGSLAVADLLGSVIFVYSFIDFHVFHRKDSRNVFLFKLGGVTASFTASVGSLFLTAIDRYISIHRPLAYKRIVTRPKAVVAFCLMWTIAIVIAVLPLLGWNCEKLQSVCSDIFPHIDETYLMFWIGVTSVLLLFIVYAYMYILWKAHSHAVRMIQRGTQKSIIIHTSEDGKVQVTRPDQARMDIRLAKTLVLILVVLIICWGPLLAIMVYDVFGKMNKLIKTVFAFCSMLCLLNSTVNPIIYALRSKDLRHAFRSMFPSCEGTAQPLDNSMGDSDCLHKHANNAASVHRAAESCIKSTVKIAKVTMSVSTDTSAEAL”, the protein production is reported as “not failed”.

In the case of “MKSILEQLSSITVVVADTGDLDAIKKFQPRDATTNPSLILAAAKNPDYIKLIDQALESSRKSLPAGFSESELIKETIDQVSVFFGKEILNLISGRVSTEVDARLSFDTEATVTKARKLINHYKSFGINKERILIKIASTWEGIKAAEILEKEGIKCNLTLLFNFCQAVACANAKITLISPFVGRILDWHKAKTGKDNFAGCEDPGVISVTKIYNYFKEKGFKTEVMGASFRNIDEIKELAGCDLLTIAPKFLDELNREEGELIKKLDEDTQSQSSIDYKFDEKDFRLSMLEDQMASEKLSEGITGFSKAIEELEELLLKRLSEINNQKLISTT”, the protein production is reported as “failed”.

With “MKSKFLTMKLILGALVLSFSCACSSSNSEEAMPQTAIGRQLVESGMANDVTLDNESVVRDGIKLNELAFKTFGESQHIFVATIDLNELTFTPATKDDKNVPATGPESSAPLPIHAFAAEANGKTVWLGVNGDYYADNPRRVMGLFYKDGVCINSQYFEGHDEVLYQLKNGETYVGQADEALAHEANLLHALGGYGLLVKDGVVQNFYEEMGDLQNTHPRTSVGLSQDRKTMYVFVVDGRRKDSFFALGLTLPHLATMMKAVGCYNAINLDGGGSTTLIIRKVNDGGKPTFPILNTPADDRVPRKVTNSMLIIEKK” the protein production was “failed”.

With “MKSKNQFFVSLLLKSTLVFSSFLMFADISRGQATVSISQQKILAQALTNQEREELTRLRAEKGERAQIQADFEQAFSRTTVLLNIWLVILSLFPVAIIALFWLLRRVAIREIVNRAMSQFEGIEKLETQLIIVKQDAENLIQDAKSINRLLEREIESLQQKIKIEQENLSVVTSELLQAKTDNLAQITTEIANFQSKLESLVGEFAHRLTQSDSDTKKQRDITLENIIKIESLLEVQLTELQKEAERHQKAVLGNIDTAGVDFNNYLINLQAEAQKNKNSVFEDFSHFQAELQGDLQQQKDIQLGNIQEVANIFNNQVSELQLEAQKQKDSLDNNLNKLHTDAQIRKDKIIHRLEELKDLFQAQVAELQIQTQQELASYLSELKIDTGNSKEKIIEELEKSGSEFVSQFSELQHNAQQQKLLILQKLEKLETDFVNQLSELQLDAQRRKDVILQELAENQPPVVVEAQPIHKDQLEVLVNENEQPQLSFDECIEQGDSLFSQKSYEEAITCYEQAVKIQQDNAVAWFKHGLTLARLKRFKDAIKSYHQAIKIKPDYHQAWCDLGVAFGNIRRHQEAFAAFDKATQVKPDDAVVWLNRGLALIELEEYEEAIASFDQALELQPNSPKIWDKRGYSLVRLGRDDEAITSFNQALEIKPEYASAYYNKAACYAMQGDVNSSLENLQQAIILNPKYKEDAATDIDFDEIAGDEKFKQLIATIGIRFDF” the protein production was “failed”.

For “MKSKTIRRWSFIHTWTSLICTVFLLMLALTGLPLIFHHEIDHLLGDSPELREMPADTPHLDLQQLVKAAEAHRPGEVMQYFGWDEDEPNGVMTIMARTAGTEPNASHTFMLDARTGEAVAMPSANGGLMMVMLRLHVDMFAGLPGKLLLAFMGILFVLAIISGTVLYLPFMRRLKFATVRQDKSSRLRWLDLHNLIGVVTLTWALVVGVTGVISACADLIIAAWRNDSLSAMVAPYRDAPPLTSLAPASRLLDIAREAAPGMQPDFIAFPGTRFSSEHHYAVFLKGSSHLTSHLLTPVLIDASSLQVTAVAGRPWYMDAMGMSQPLHFGDYGGMPMKVLWAAMDMLTIIVLGSGLYLWLARRRAGKSMPQVRP”, the protein production was “failed”.

For “MKSLGRHLVAEFYECDREVLDNVQLIEQEMKQAAYESGATIVTSTFHRFLPYGVSGVVVISESHLTIHTWPEYGYAAIDLFTCGEDVDPWKAFEHLKKALKAKRVHVVEHERGRYDEIGIPEDSPHKAAV”, the protein production was “not failed”.

With “MKSLIIGANGGVGQHLVRKLKARDVDFTAGVRKEEQVEALKADGIDATYIDVAKQSIDELIELFKSYDQILFSVGSGGSTGDDQTIIVDLDGAVKAIKASEQIDHQHFIMVSTYDSRREAFDASGDLKPYTIAKHYADDYLRHANLKYTIVHPGALTNEHETQQFNMSAQFENVQNPSITREDVAEVLVSVLTDEVLQGHEFQIINGDLSLLDATTKYLEE” the protein production was “failed”.

With “MKSLQIYLFLFLSVFALGACIQNDIPYPYIKGEITAFEVEGQTGDAEINKNSRTIVVEVGDEVDIEELRITRFVVNEEATYSIDEQYCVSPNKFPSAGFSALADLPAGADTRVDFSKTVPVLLRTYQDYQWMITVKQTIERVVEVENQALPAIIDDKNHTVLVYVSQKQDLSAVKITKMILGGSKATITPDPSTVTNFRRPQEFVVNRFDKEELWTVDVVRTTSTGTTGSADVWATRATLNGGMKQGTTPRVEYRKKSEDTWTVVPETDVKLESGTTFSTTLTGLQDGTDYVWRVVVEEVPSTESGFTTEKIQEIPNLNFDTWSQNPTGTFKKSWYPNADGSNSFWATGNDGVTSSLAGSRDSSTRPEEKSVVNGKAAYMVTLGSVPLVGVAAGNLFIGDYKTNAQSPLEHHHHHH” the protein production was “failed”.

For “MKSQISWKVGGQQGEGIESTGEIFATAMNRKGYFLYGYRHFSSRIKGGHTNNKIRVSKSPVHAISDDLDILIAFDQETIELNHHEMREDSIIIADSKAKPQKPENCVAQLIELPFTSTAKELGTALMKNMVAIGATSALMDLNTSTFETLIDNMFSKKGNKVVDMNIQALNMGYDLMKQQVTNVNGDFTLENGSGHPHLYMIGNDAIGLGAIAAGSRFMSAYPITPASEIMEYMIANLPKVDGTVVQTEDEIAAATMAIGANYAGVRGFTASAGPGLSLMMESIGLSGMTETPLVIINTQRGGPSTGLPTKQEQSDLMQMIYGTHGDIPKIVVAPTDAEDAFYLTMEAFNLAEEYQCPVILLSDLQLSLGKQTVKTLDYNKIDIRRGEIIQSDIERAEDDKAYFKRYALTASGVSPRPIPGVKGGIHHVTGVEHNEEGKPSEAPMNRQNQMEKRMRKTESLVINNPVLLNEHEDEADILYIGFISTKGAIGEGAERLERHGVKVNTMHIRQLHPFPKDIVQQAINKASKVIVAEHNYQGQLSSILKMNTQVNDKLVNQTKYDGKPFLPYEIEEKGLEIAKELKELV”, the protein production was “failed”.

For “MKSRREQSIEEAIVANYLKMMIDNVNVWPRHFLRSEDVYCKNPWTLFVTRDPIILHFGRYFFVNRSVNSGLTDGCEYGCWRIIGRDRVIKSVTTGKILGLKKVYKFCETDRKPKSVFKFLEKEKRRVRDRRIWAMEEYRFASTWKQDYVICKIRRLYPQPFDYMLAQHIRGYYK”, the protein production was “failed”.

With “MKSTAEYLEDPEQAADRALSLLQDLGGLSAAAAWGRSGVMWRRLAGFGDLAGLPDGAALAAGERPPAGGAMAMRAGDGALGWLAWQGKPPGQMETVAELLAGHLQCEALRAEQAATRVANETMLEISLLAGECPTLDRLLPRLHRLMQRLMDADNFYIALCGDDRSTLSFPFYADRREASPPDPERAFPIAGPDVSLTAWLIRGGAPMVLTGERIEALCRQEALARPANLPAFWMGAPLRNAADELIGAAVLQRYDDQPPLTSAEQLLFMFAARHVGFALDRVLYHRRLERQVALRTSELEGANARLRAEVASRKRAEKFQDVLFRIAELSNTSLSLEAFLSGLHRLLLEMVAARNCVVALYDMGSDLISFPYCADEYAPALKPRKPGKGLIEQVLHSGRPLLLDPYGSLQGMAAAEGATPPKSWLGVPLYCDHELLGVLAVQSYDGDVVYGYRDQEVLEFVANHIGTALARVRALESLQHAYADLEQRVRERTSELDAVNAQLEFDSLHDPLTKLPNRNYFSKALRRAWDAYLDGGDRFAVVFIDLDRFKLVNDTLGHLAGDHLLFEAGARIRSCLRHYDFLARLGGDEFAVLMFGMDAVDECEVIARRIVSEFERPVVLAGREVFSTASVGVVLADSEHYHKADDLLRDADHAMYCTKQQGRQGYTLFSHQLRIDQADQLALETELRRALEEEGQLVPYYQPFIAAATGALAGFETLVRWQHPQRGLVSPGVFLPVAEESGLITRLDRYMINAACAQLQAWRAEGRVGEGIALHINLSSANFRDPDLVGWIGERIAHYRLPPAMLHLEITESALIDQPEAAATAMQALHGLGVRLALDDFGTGYSALSYLHRYRFDVLKIDQSFVFDLDRKQESVAIVRAILALARALDLEVVAEGVETASQSAMLKEMGCGMLQGFHFAAPAPAWALDWDKLARFAEGPGRVA” the protein production was “failed”.
